From patent publication US20180016327A1 (Chugai, published 2018)

Biological target: T1, human C5 (human, UniProt P01031 19-673; P01031 678-1676, Beta and alpha chains are disulfide-linked and the protein is glycosylated.)
T1 construct: Either in-house recombinant C5 or plasma derived C5 (CALBIOCHEM) was used; also called recombinant human C5; plasma derived human C5
Experiment: Biacore, captured antibody, pH 7.4, 37 C;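 further: biacore binding response of anti-C5 antibody light chain variants captured on chip with human C5 injected, ACES running buffer containing 1.2 mM CaCl₂, parent light chain antibody set to 100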

Binder | % binding (parent = 100) [%]
CFP0021 21L 91Y (antibody, V domains shown) VH: QVQLVESGGGLVQPGGSLRLSCAASGFTFSDHYMDWVRQAPGKGLEWVGRTRNKANSYTTEYAASVKGRFTISRDDSKNSLYLQMNSLKTEDTAVYYCARTGMMYWGIFDVWGQGTLVTVSS VL: DIQMTQSPSSLSASVGDRVTITCRASQSIEDDLAWYQQKPGKAPKLLIYHASTLQSGVPSRFSGSGSGTDFTLTISSLQPEDFATYYCQQYDSYPLTFGQGTKVEIK | 79.5
CFP0017 17L 53H (antibody, V domains shown) VH: QVQLVQSGAEVKKPGSSVKVSCKASGGTFSSYAISWVRQAPGQGLEWMGGIIPIFGTANYAQKFQGRVTITADESTSTAYMELSSLRSEDTAVYYCARGGWWGGALDYWGQGTLVTVSS VL: DIQMTQSPSSLSASVGDRVTITCRASQSIEDDLAWYQQKPGKAPKLLIYHASHLQSGVPSRFSGSGSGTDFTLTISSLQPEDFATYYCQQSDSYPLTFGQGTKVEIK | 69.6
CFP0017 17L 53N (antibody, V domains shown) VH: QVQLVQSGAEVKKPGSSVKVSCKASGGTFSSYAISWVRQAPGQGLEWMGGIIPIFGTANYAQKFQGRVTITADESTSTAYMELSSLRSEDTAVYYCARGGWWGGALDYWGQGTLVTVSS VL: DIQMTQSPSSLSASVGDRVTITCRASQSIEDDLAWYQQKPGKAPKLLIYHASNLQSGVPSRFSGSGSGTDFTLTISSLQPEDFATYYCQQSDSYPLTFGQGTKVEIK | 52.9
CFP0017 17L 34N (antibody, V domains shown) VH: QVQLVQSGAEVKKPGSSVKVSCKASGGTFSSYAISWVRQAPGQGLEWMGGIIPIFGTANYAQKFQGRVTITADESTSTAYMELSSLRSEDTAVYYCARGGWWGGALDYWGQGTLVTVSS VL: DIQMTQSPSSLSASVGDRVTITCRASQSIEDDLNWYQQKPGKAPKLLIYHASSLQSGVPSRFSGSGSGTDFTLTISSLQPEDFATYYCQQSDSYPLTFGQGTKVEIK | -9.4
CFP0021 21L 92N (antibody, V domains shown) VH: QVQLVESGGGLVQPGGSLRLSCAASGFTFSDHYMDWVRQAPGKGLEWVGRTRNKANSYTTEYAASVKGRFTISRDDSKNSLYLQMNSLKTEDTAVYYCARTGMMYWGIFDVWGQGTLVTVSS VL: DIQMTQSPSSLSASVGDRVTITCRASQSIEDDLAWYQQKPGKAPKLLIYHASTLQSGVPSRFSGSGSGTDFTLTISSLQPEDFATYYCQQHNSYPLTFGQGTKVEIK | 4.7
CFP0021 21L 93D (antibody, V domains shown) VH: QVQLVESGGGLVQPGGSLRLSCAASGFTFSDHYMDWVRQAPGKGLEWVGRTRNKANSYTTEYAASVKGRFTISRDDSKNSLYLQMNSLKTEDTAVYYCARTGMMYWGIFDVWGQGTLVTVSS VL: DIQMTQSPSSLSASVGDRVTITCRASQSIEDDLAWYQQKPGKAPKLLIYHASTLQSGVPSRFSGSGSGTDFTLTISSLQPEDFATYYCQQHDDYPLTFGQGTKVEIK | 22.2
CFP0021 21L 93R (antibody, V domains shown) VH: QVQLVESGGGLVQPGGSLRLSCAASGFTFSDHYMDWVRQAPGKGLEWVGRTRNKANSYTTEYAASVKGRFTISRDDSKNSLYLQMNSLKTEDTAVYYCARTGMMYWGIFDVWGQGTLVTVSS VL: DIQMTQSPSSLSASVGDRVTITCRASQSIEDDLAWYQQKPGKAPKLLIYHASTLQSGVPSRFSGSGSGTDFTLTISSLQPEDFATYYCQQHDRYPLTFGQGTKVEIK | 5.2
CFP0021 21L 93G (antibody, V domains shown) VH: QVQLVESGGGLVQPGGSLRLSCAASGFTFSDHYMDWVRQAPGKGLEWVGRTRNKANSYTTEYAASVKGRFTISRDDSKNSLYLQMNSLKTEDTAVYYCARTGMMYWGIFDVWGQGTLVTVSS VL: DIQMTQSPSSLSASVGDRVTITCRASQSIEDDLAWYQQKPGKAPKLLIYHASTLQSGVPSRFSGSGSGTDFTLTISSLQPEDFATYYCQQHDGYPLTFGQGTKVEIK | 37.9
CFP0021 21L 93N (antibody, V domains shown) VH: QVQLVESGGGLVQPGGSLRLSCAASGFTFSDHYMDWVRQAPGKGLEWVGRTRNKANSYTTEYAASVKGRFTISRDDSKNSLYLQMNSLKTEDTAVYYCARTGMMYWGIFDVWGQGTLVTVSS VL: DIQMTQSPSSLSASVGDRVTITCRASQSIEDDLAWYQQKPGKAPKLLIYHASTLQSGVPSRFSGSGSGTDFTLTISSLQPEDFATYYCQQHDNYPLTFGQGTKVEIK | 28.5
CFP0021 21L 94F (antibody, V domains shown) VH: QVQLVESGGGLVQPGGSLRLSCAASGFTFSDHYMDWVRQAPGKGLEWVGRTRNKANSYTTEYAASVKGRFTISRDDSKNSLYLQMNSLKTEDTAVYYCARTGMMYWGIFDVWGQGTLVTVSS VL: DIQMTQSPSSLSASVGDRVTITCRASQSIEDDLAWYQQKPGKAPKLLIYHASTLQSGVPSRFSGSGSGTDFTLTISSLQPEDFATYYCQQHDSFPLTFGQGTKVEIK | 0.9
CFP0021 21L 92S (antibody, V domains shown) VH: QVQLVESGGGLVQPGGSLRLSCAASGFTFSDHYMDWVRQAPGKGLEWVGRTRNKANSYTTEYAASVKGRFTISRDDSKNSLYLQMNSLKTEDTAVYYCARTGMMYWGIFDVWGQGTLVTVSS VL: DIQMTQSPSSLSASVGDRVTITCRASQSIEDDLAWYQQKPGKAPKLLIYHASTLQSGVPSRFSGSGSGTDFTLTISSLQPEDFATYYCQQHSSYPLTFGQGTKVEIK | 4.8
CFP0021 21L 94S (antibody, V domains shown) VH: QVQLVESGGGLVQPGGSLRLSCAASGFTFSDHYMDWVRQAPGKGLEWVGRTRNKANSYTTEYAASVKGRFTISRDDSKNSLYLQMNSLKTEDTAVYYCARTGMMYWGIFDVWGQGTLVTVSS VL: DIQMTQSPSSLSASVGDRVTITCRASQSIEDDLAWYQQKPGKAPKLLIYHASTLQSGVPSRFSGSGSGTDFTLTISSLQPEDFATYYCQQHDSSPLTFGQGTKVEIK | 0.3
CFP0021 21L 94H (antibody, V domains shown) VH: QVQLVESGGGLVQPGGSLRLSCAASGFTFSDHYMDWVRQAPGKGLEWVGRTRNKANSYTTEYAASVKGRFTISRDDSKNSLYLQMNSLKTEDTAVYYCARTGMMYWGIFDVWGQGTLVTVSS VL: DIQMTQSPSSLSASVGDRVTITCRASQSIEDDLAWYQQKPGKAPKLLIYHASTLQSGVPSRFSGSGSGTDFTLTISSLQPEDFATYYCQQHDSHPLTFGQGTKVEIK | 2.6

Next, values leading:

% binding (parent = 100) [%] | Binder
1.3 | CFP0021 21L 94W (antibody, V domains shown) VH: QVQLVESGGGLVQPGGSLRLSCAASGFTFSDHYMDWVRQAPGKGLEWVGRTRNKANSYTTEYAASVKGRFTISRDDSKNSLYLQMNSLKTEDTAVYYCARTGMMYWGIFDVWGQGTLVTVSS VL: DIQMTQSPSSLSASVGDRVTITCRASQSIEDDLAWYQQKPGKAPKLLIYHASTLQSGVPSRFSGSGSGTDFTLTISSLQPEDFATYYCQQHDSWPLTFGQGTKVEIK
1.4 | CFP0021 21L 96Y (antibody, V domains shown) VH: QVQLVESGGGLVQPGGSLRLSCAASGFTFSDHYMDWVRQAPGKGLEWVGRTRNKANSYTTEYAASVKGRFTISRDDSKNSLYLQMNSLKTEDTAVYYCARTGMMYWGIFDVWGQGTLVTVSS VL: DIQMTQSPSSLSASVGDRVTITCRASQSIEDDLAWYQQKPGKAPKLLIYHASTLQSGVPSRFSGSGSGTDFTLTISSLQPEDFATYYCQQHDSYPYTFGQGTKVEIK
1.3 | CFP0021 21L 94T (antibody, V domains shown) VH: QVQLVESGGGLVQPGGSLRLSCAASGFTFSDHYMDWVRQAPGKGLEWVGRTRNKANSYTTEYAASVKGRFTISRDDSKNSLYLQMNSLKTEDTAVYYCARTGMMYWGIFDVWGQGTLVTVSS VL: DIQMTQSPSSLSASVGDRVTITCRASQSIEDDLAWYQQKPGKAPKLLIYHASTLQSGVPSRFSGSGSGTDFTLTISSLQPEDFATYYCQQHDSTPLTFGQGTKVEIK
0.8 | CFP0021 21L 96W (antibody, V domains shown) VH: QVQLVESGGGLVQPGGSLRLSCAASGFTFSDHYMDWVRQAPGKGLEWVGRTRNKANSYTTEYAASVKGRFTISRDDSKNSLYLQMNSLKTEDTAVYYCARTGMMYWGIFDVWGQGTLVTVSS VL: DIQMTQSPSSLSASVGDRVTITCRASQSIEDDLAWYQQKPGKAPKLLIYHASTLQSGVPSRFSGSGSGTDFTLTISSLQPEDFATYYCQQHDSYPWTFGQGTKVEIK
4.3 | CFP0021 21L 96P (antibody, V domains shown) VH: QVQLVESGGGLVQPGGSLRLSCAASGFTFSDHYMDWVRQAPGKGLEWVGRTRNKANSYTTEYAASVKGRFTISRDDSKNSLYLQMNSLKTEDTAVYYCARTGMMYWGIFDVWGQGTLVTVSS VL: DIQMTQSPSSLSASVGDRVTITCRASQSIEDDLAWYQQKPGKAPKLLIYHASTLQSGVPSRFSGSGSGTDFTLTISSLQPEDFATYYCQQHDSYPPTFGQGTKVEIK
39.9 | CFP0021 21L 96F (antibody, V domains shown) VH: QVQLVESGGGLVQPGGSLRLSCAASGFTFSDHYMDWVRQAPGKGLEWVGRTRNKANSYTTEYAASVKGRFTISRDDSKNSLYLQMNSLKTEDTAVYYCARTGMMYWGIFDVWGQGTLVTVSS VL: DIQMTQSPSSLSASVGDRVTITCRASQSIEDDLAWYQQKPGKAPKLLIYHASTLQSGVPSRFSGSGSGTDFTLTISSLQPEDFATYYCQQHDSYPFTFGQGTKVEIK
-0.7 | CFP0021 21L 96H (antibody, V domains shown) VH: QVQLVESGGGLVQPGGSLRLSCAASGFTFSDHYMDWVRQAPGKGLEWVGRTRNKANSYTTEYAASVKGRFTISRDDSKNSLYLQMNSLKTEDTAVYYCARTGMMYWGIFDVWGQGTLVTVSS VL: DIQMTQSPSSLSASVGDRVTITCRASQSIEDDLAWYQQKPGKAPKLLIYHASTLQSGVPSRFSGSGSGTDFTLTISSLQPEDFATYYCQQHDSYPHTFGQGTKVEIK
19.7 | CFP0021 21L 96I (antibody, V domains shown) VH: QVQLVESGGGLVQPGGSLRLSCAASGFTFSDHYMDWVRQAPGKGLEWVGRTRNKANSYTTEYAASVKGRFTISRDDSKNSLYLQMNSLKTEDTAVYYCARTGMMYWGIFDVWGQGTLVTVSS VL: DIQMTQSPSSLSASVGDRVTITCRASQSIEDDLAWYQQKPGKAPKLLIYHASTLQSGVPSRFSGSGSGTDFTLTISSLQPEDFATYYCQQHDSYPITFGQGTKVEIK
